For the experiment, the target named is VLDLRLBD-Fc fusion protein (human, UniProt P98155-1 31-355). The experiment is described as follows: BLI; […] (2.6 µM) […]; kinetic buffer with 2 mM CaCl2. To be noted: both partners purified. In general terms: BLI is a label-free optical method that tracks binding on a fibre tip over time.

B1: receptor-associated protein (RAP) (natural protein, human, UniProt P30533 35-353, looked up)
chain: YSREKNQPKPSPKRESGEEFRMEKLNQLWEKAQRLHLPPVRLAELHADLKIQERDELAWKKLKLDGLDEDGEKEARLIRNLNVILAKYGLDGKKDARQVTSNSLSGTQEDGLDDPRLEKLWHKAKTSGKFSGEELDKLWREFLHHKEKVHEYNVLLETLSRTEEIHENVISPSDLSDIKGSVLHSRHTELKEKLRSINQGLDRLRRVSHQGYSTEAEFEEPRVIDLWDLAQSANLTDKELEAFREELKHFEAKIEKHNHYQKQLEIAHEKLRHAESVGDGERVSRSREKHALLEGRTKELGYTVKKHLQDLSGRISRAR
Turning to B1, the binding result is “binds”.

These data come from PMC11297306 (Nature Communications, 2024).
